# According to the DeepSol protein solubility set:
# Experiment: soluble on expression in E. coli; label from the status in PepcDB or PDB records
row,Sequence,soluble on expression in E. coli
1,MAHHHHHHMGNTVPYNCYERWGKRTPDGPLLNYDPQMPNSGTLSVLLENFDYESTEESNNKCEYIINKEPIEKNNNMNPKVIRNARRRPTYSPTARKINIQSDDEEEDEDDDEKLSTDDSDENISAKDIKDEKIQQYRKTLTKIVKIKTAIFHETVKVTCSKDGKMLEWYKGKNDSDGKKKPIGSFPLNKITSIRTKVDNLKSLEISVSSVHISTYLFTFKTREERESWQNNLESFRKIMSMK,not soluble
2,MAHHHHHHMGTLEAQTQGPGSMFKLTGRKALVTGATGGIGEAIARCFHAQGAIVGLHGTREDKLKEIAADLGKDVFVFSANLSDRKSIKQLAEVAEREMEGIDILVNNAGITRDGLFVRMQDQDWDDVLAVNLTAASTLTRELIHSMMRRRYGRIINITSIVGVVGNPGQTNYCAAKAGLIGFSKALAQEIASRNITVNCIAPGFIKSAMTDKLNEKQKEAIMAMIPMKRMGIGEEIAFATVYLASDEAAYLTGQTLHINGGMAMI,soluble
3,MAHHHHHHMGTLEAQTQGPGSMSMAQQFIDIGANLTDDNYFGNYHGKHYHEEDIDVVLQRAERNGLSHIIITSGCLNDFKKAIEIINKYQNLTNIKLVTTIGVHPTRTNELKQEGYLDELLLLCEKNIDKVVAIGEIGLDYERLQFSDKETQLSGYRTLSILHQKYPYLPFFFHCRKSWSDLCQLNKELGYNGCKGVVHCFDGTEEEMNQILNEGWDIGVTGNSLQSIELLNVMKQIPIERLHIETDCPYCGIKKTSAGFKYLKEKDFGVKVEKYQRNKYVQRRNEPSNIIDIAIIMSSIKHISLFEFVNKVYSNSMNMYFPTMN,soluble
4,MAHHHHHHMGTMGASNDVTDVDDENLLSEELQSSSTGSWSSMGDLQTTESAESDAPSEESDPDERVRRATASFLQWKNKEYVPLSLDEKRAIKEYRKMVAQEEGSYTSTRAQRQRDRAPKLFISREDDWVDLGSPAEGDGLARRRSRKIRFVAAVIASKEVDVHNDGLVVLTDAGEEVPELPRSASILRMSCVKNLTEEAPVFVDDLNSCMMEDEGRSCESAVRWEFPR,soluble
5,MAHHHHHHMHATKSGVTTLSASAGNSDVPVMSAAYEDAARQPNAVFVNVYDIMKSNSWLWSVGLGVHHAGIQVYDKEYQYGRCEEGSGVRAVEPRHSPPHIFREQFFVGQTQLSALEVRKLVARLEQCDTWQGSKYHLVKHNCIHFAQAFCEALLPPHVRVAQMRTALPSTYQSAYMEEVEVDGQQYSLPVLIPPHVSRLSNYATSYLPESALQMLDSMDNPFSTP,soluble
6,MAHHHHHHMHDIYLDNPSTFEILEKMFSLYVNTYPDNELPIGFILMGDFISLKFDYNKNFNDLYIKGFEKLSVLLISKFKLILQNCYLIFIPGKNDPCACKNSIPKMPILPYYIKKFEQNIQSFFSCKKKIIFATNPCRIRHFNKKMIFFRQDILNDLIWSSSINATDDNKNNLQDILISTIVGQSHIYPIPHDNRILKRYSSFLFLYPLPNFICISDNTCNSFISYASDNTSDSIISNSDLSFTKKKTFTVYNVLQHDAKRYVVPI,not soluble
7,MAHHHHHHMHLKIVCLSDEVREMYKNHKTHHEGDSGLDLFIVKDEVLKPKSTTFVKLGIKAIALQYKSNYYYKCEKSENKKKDDDKSNIVNTSFLLFPRSSISKTPLRLANSIGLIDAGYRGEIIAALDNTSDQEYHIKKNDKLVQLVSFTGEPLSFELVEELDETSRGEGGFGSTSNNKY,soluble
8,MAHHHHHHMHPVPQAPYLSSPSPLFPNRGWCWQRPLRIFCPFFSAPLRAASSRRCHRPFLSIRFKKRCCNNPLLLGVVEAILPEPHSPAIPPVILRVFTPPS,not soluble
9,MAHHHHHHMHQLRTFNYVASELGHDEPVLHAVFVTHRCLPPDPPEVNFTTAIPQTVTAASRRTSSDDASIGAAVHVEKTVVLSVEDTLAAPLEVALTVEQELAQLSKKLDAWKVQRLADLQARGGERSPSRLAQMEAAMERRLALRRIEEQDRAQKRVDALLSYLGPRIDKQLQLVAREHDGEEALSSSYARVETTSDVKDSACADKSAASAATPSPPSPRARILCDQQYFVKRQEIALEERGARQAVLRNMWDARRLAHLVEDEVSFRHSIEAREVVWRDRVHSELRASVEMDHV,not soluble
10,MAHHHHHHMICEVLQCNRYPPCCGQYPNGEVNVVLPRSVRGDDLFVLQSLVRCDRVGLSHSGTLMELALMIHAARASSAARITAVIPYISFTESVSSMAAVAEILESMGCQHVITVDMPIDQVEGMFSVPLELISARYEFVQYIANQLTAEGHDFRNITVVAPNGAGVHRAKNFADALMQYKKLSPDEQFVPLCTAVRRQVYRGLQDTVLNINHCGANVGSTRAFEQALLQQEQGICAIQDDGDTTITSEGIDLVGDVQGKLCIVVDTSVDEATEICQTACKLREEGASRIILIATHFIISGRAVERLIESPIDLIVVTDSVEHDEVFKNPHIARRLRVLPIAPLLARAIEKLHTENSLTTLFEK,not soluble
11,MAHHHHHHMILLQLTVVGYLNTGKTSLINSIMNNEIFTNYSHTPLPMIYYKVHKDKNRAFCVEIEDTSVDVDINNFTNMMRKEITTNSKNMKNPVFSYFENPCIPFQAHDPYNSISYGRMAYFLVFDLTNPSTFEYVKMIYLNMSSIYEKYYTLKPFISLVGNKSDLADENCALVREAENFSNEHMVQLWLTSAYTGKNVKKLFLHTINMVYNNTNLWKYDIEESGSESSES,not soluble
12,MAHHHHHHMIRKIIILMFTFFSNIHNEKIYHHKQRRKFLKGPLGYLNRNVIQKKHYNLYAKKFINYKEIQIQRINDYRKRSGVDKNNINYNLRDTYNYHETHLFVRNEVLPTLAKIENENLKEKEKNKEIFRNINDYNSNFTRQTFLQFLMDLYNIFLKIDDLFLENKTYFSILIYNGPMQLTNHLYDDIIYVSSVVENSDDVSPSEYCMEYISHLENLCEENKLSFLAHAYVFYKNFHLSKEHLLKSICKYLNIIKKLKSSTYVADVENFEVSQKCFLHLLFCLNKMSRKWSRWEKDNFLASLHNATNKMMILTKHFEKVKS,not soluble
13,MAHHHHHHMISRINIDGSVNGRFCKKINNNIDCKLNFNTYAKNDTRNMYEMSLEVNKPLYTYNFKSIWQGAWIFNTSYTQLLTKKLQAGVDLTYIASNCASIGSFGLRYNHKNNVLTMQIVRQPNFKSPEFMLNQTHLYKIQYAKKISDRLSLGTELEITPQTKESAMRLGWDYSFRHAKVQGSIDTSGKISVFTQDYSGFGVSGYIDYLNNDYKFGFMMHISPSQEQPQTAA,not soluble
14,MAHHHHHHMIVKVFDYIYISNVYNANDIYELIKLNIGGVLTCFDCTCIEWCHHNDTNVTNKIFYKDIFVNTKKDLIKCDVPIITNKSVNSDIIGGTHQINNYYNEQNNNYHDNTYKEFTQTHKTNIDPSQIKSDHINEERKEHYDYIIFPSDIINNTQCNNNNLKDYIKSMLILKEDAYIDFDVIHMD,not soluble
15,MAHHHHHHMKALKLFTNRICPFCQRVLITAKEKRVTLEEVEVPLGDDMPQWYKELNPRETVPMLQVDGKKCMIESDLISRYIDRISSPENALIGSSPYQRHRVEFFLSEIGDLVKAYFGLVRDPFNEEKRKSVDHNTAYIEGIIAEHQGDGPYFLDDTFSMAEVMVVPFLACFRPVLSYYCGYDIFHEAPRLKKMYVTSMQRTTVKETISKPEEYIIGFKSKVPKSHVTWSLAPGYVLFVNKYSPFSDRPRLACALKNIDLPMLEIDLKQLPSWFRWFNQRETVPTLLTPRGTYVHESQLIVHYLDDGFPEHGPALLPKDADGSYHVRFVESNVDYFMDAMYSLIKDPKNTNAKEEFDWAAGELEKLLAEHQFGEGPFFGGATMNAADVSLLPMLVHLKACTPDLTEGQDLLANYKLLAAAAEAGLTSEAGKKVFLSLSEYSSIYKTFLRPSS,soluble
16,MAHHHHHHMKEYTGNRSVPTTIQNKKKSITEEINKSLHTQDSKNNQNNYEICLSDVSVSTISNSSGIDSDLYEEVIKKIKKEKKRKRKESKRDIYKEKVKYDKKESNSNDENKNDRGNEKDRKNNSDIENNSDSEYINDKEKDRKKRKHIDIDKKKRNKESHHHVNKKKDKNISTRKKRKYTSSLSSESYERRKDKKKKKEKYRNSESSYKSMVDENIPKDPFNPLLLAYEKKEKKKYRKNDEHNDLNDRWKHDRYENTSDDEDINIEKAYENSKPYFDPHEFPKILWKSKAGGVCVPQISDDKK,not soluble
17,MAHHHHHHMKFIPLDSFSALNSLLQGVEAQGCCITMRLEAYTCRHTKEERQIANSIACYQNNVQLTPPISPLPTIGAYAGCTQEALPPLVLGGSAENVAASYSLVSPNEIDDRLVYFVAALNTVYESDGYDFSVLRENDFVRYTEPQFRTEVSSTLQSLPEQCRPAVQRFWPTIEEVVENAESGCEYYEFRCPSCNPLADTTVYARHYFVYNRRKKVLVLLVEYGESNPYRGDDGLPHAGDPTSAWDAESPTYASTPDLGEEGEAYDGGKNRQFYGYY,soluble
18,MAHHHHHHMKGCTLQNNFNHTAPFCGEWNSTILSGSLPPNSGGSSCVINLIKDEVHTVNGNTPRGITITSDTTKDGVFCTMDANGCPFAVDREIERGVNRMKAITKHGTCHMAYATSGGRTCDDSYDRSTRNYHDEEDEEWYEEDEEEGEDSPRIHIIDEHRDGRLLGNILCGMSRAGERISQGLDMLSPLEKRKSGRCAAIESVDYNNTRRRGGGGAETQKGLFQNYYNTGRGRWASRNHCRTNGWDESVSVESCFSHTYNQQWRGREPDYAMMEAHAALDGRSFCEGTYLSSTKLSERKKRVALSGSRVCRDAGKVIVQDNCPYDHKKRHKGRRQCQSPFGEEKIRANDPFDSPKNAITHIKKAGSAGSDDNDSCNPHSKSPGLTGSGSRCSQKETAGRSAEQRNGSGKAASPKTSPHKDELKEKESTVVKKD,not soluble
19,MAHHHHHHMKGKGPIKIVLFGAPGVGKGTFAEILSKKENLKHINMGNILREEIKRKTTIGKEIDKVVTSGNLVGDDLIIRIVKDEIAKVTIQKDCYFKGFILDGFPRNLFQCNELAKITNIDLFINIYMPRHILIKKIMGRRICNDCNRNFNVVHIREDSYDMLPILPPQDCETCKGNPKLQTRSDDSEEIVAHRLNTYELTNSPLINFFKNSNCNFVDFEIKRGLQDFDSFYRIVSQNL,not soluble
20,MAHHHHHHMKGSNTVHTREANANEVHASRQDMRAALLPSDTRILVSRIPASAVSVVSDETRAKGRRRCLVTRTLRRCPEMMSHRRGGHAALVSLLLPLTSHRFCVSPSHVLSIASCAFPCTHSCCVQQGVHPSHLPACLPACRRPRACFVSALCRAHEHAVMFSYNNIIEKGEPLNKEIIDHVLDHVTEFPTPTMVSVGDGKADCIVLENFLTHEECDQLVAACEKVGYTFWLQKNHHDADGEATCDSGSKAVRVVDTIEANFPHLSAKLYERIARVVSLKPKCFSEDMPNAEELFERELAGTWVPHALSENLLFGRYHPGGHFMPHVDGATILDLNTRSFYTLLIYLNDCLHGGETFIFAGEQCNVMYLDEKENQYRGNATQRVGAVYPKKGSAAFFYYNLLHEGAPVLEGHKYICRADLLYHRTPTIFTSEADEKAFKAYQEARLAESHGDAERACQLFQRVRKLSKGVASIFQIE,not soluble
21,MAHHHHHHMKPEGAKGAVVSDDVGGDSANLAYCSDRITLLSRADIEAFTCCSNGAGGGGASNSENHNGGCGGLASEAQSVDPCSTLDTCIAALPMFLQSEALVLRRHEQQFRHHMKELVELTECITLLCDGSLRQHAAAVAGQPAEQSADAQRAESAALHRMLHRAEELERYVRAAAVERLRSAQRMVLAASTTKRREKVGRKSAVRPPKATK,not soluble
